US20210220404A1 (Novartis, published 2021)
No end group written: not given here.

B1: human recombinant (r)BCMA_Fc-AF647 (Fc fusion)
chain: MLQMAGQCSQNEYFDSLLHACIPCQLRCSSNTPPLTCQRYCNASVTNSVKGTNA
modifications: cysteine pairing not given here; also: Alexa Fluor 647 label, Fc fusion tag, unspecified
notes: In-house flow cytometry staining reagent; not shown: Fc part of an in-house reagent

Columns and labels:
[1] = molecular target: B1; assay: flow cytometry; rBCMA_Fc-AF647 staining of CAR-transduced primary human T cells, day 9 of culture (reported by the filing as CAR expression)
Method: (§1) BCMA CAR T cells were generated by starting with blood from healthy apheresed donors whose T cells (CD4+ and CD8+ lymphocytes) were obtained by negative selection for CD3+ T cells. These cells were activated by the addition of CD3/CD28 beads (Dynabeads® Human T-Expander CD3/CD28, Thermo Fisher Scientific) at a ratio of 1:3 (T cell to bead) in T cell medium (RPMI1640, 10% heat-inactivated fetal calf serum (FCS), 2 mM L-glutamine, 1× Penicillin/Streptomycin, 100 μM non-essential amino acids, 1 mM Sodium Pyruvate, 10 mM Hepes, and 55 μM 2-mercaptoethanol). T cells were cultured at 0.5×10⁶ T cells in 1 mL medium per well of a 24-well plate at 37° C., 5% CO₂. After 24 hours, when T cells were blasting, T cells were transduced with BCMA CAR virus at a multiplicity of infection (MOI) of 5. […] Aliquots of T cells were stained to measure CAR expression by flow cytometry at day 5 and 9 on a FACS Fortessa (BD). All BCMA CAR T cells were produced under research grade (i.e., not clinical grade) manufacturing conditions.
(§2) The BCMA-CAR surface expression and its stability was assessed by measuring CAR % and MFI (mean fluorescence intensity) at day 5 and day 9 using flow cytometry analyses of rBCMA_Fc-AF647 stained cells (FIG. 2 and Table 27).

[2] = molecular target: B1; assay: flow cytometry; rBCMA_Fc-AF647 staining of CAR-transduced primary human T cells, day 5 of culture (reported by the filing as CAR expression)
Method: as §1, §2

[3] = molecular target: T1, 245; assay: flow cytometry, T cells with construct 245, day 8, MFI of rBCMA-Fc stain
T1 construct: also called c245; Mono-duBCMA.4

[4] = molecular target: T2, anti-BCMA CAR arm of duCD19.1-P2A-duBCMA.4 (construct 234); assay: flow cytometry, T cells with construct 234, day 8, MFI of rBCMA-Fc stain
T2 construct: also called c234; duCD19.1-duBCMA.4

[5] = molecular target: B1; assay: flow cytometry, T cells with construct 244, day 8, rBCMA-Fc AF647 stain
Method: BCMA-CD19 dual or monoBCMA or monoCD19 CART cells were generated using human primary T cells (CD4+ and CD8+ lymphocytes) obtained by negative selection or positive selection via Prodigy upon processing blood from healthy apheresed donors. Before transduction, the T cells were activated using CD3/CD28 beads (Dynabeads® Human T-Expander CD3/CD28, Thermo Fisher Scientific) at a ratio of 1:3 (T cell to bead) in T cell medium (RPMI1640, 10% heat-inactivated fetal calf serum (FCS), 2 mM L-glutamine, 1× Penicillin/Streptomycin, 100 μM non-essential amino acids, 1 mM Sodium Pyruvate, 10 mM Hepes, and 55 μM 2-mercaptoethanol). The cells were cultured at a density of 0.5×10⁶/mL medium per well in a 24-well plate at 37° C., 5% CO₂. After 24 hours, when T cells were blasting, they were transduced with viruses at a multiplicity of infection (MOI) of 5 based on the upstream CAR titer. T cells began to divide in a logarithmic growth pattern, which was monitored by measuring the cell counts per mL, and T cells were diluted in fresh medium every two days and de-beaded and harvested for further analyses on day 8 or beyond depending on the size of the cells. Aliquots of T cells were stained to measure CAR expression by flow cytometry on day 7 or 8 on a FACS Fortessa (BD).

| Binder | CAR MFI on T cells (Day 9) [1] | CAR MFI on T cells (Day 5) [2] | binding result [3] | binding result [4] | binding result [5] |
| --- | --- | --- | --- | --- | --- |
| PI61 BCMA CAR (other, CAR on transduced JNL cells or primary human T cells; also called P161; Mono PI61) QVQLQESGGGVVQPGRSLRLSCAASGFTFSSYGMHWVRQAPGKGLEWVAVISYDGSNKYYADSVKGRFTISRDNSKNTLYLQMNSLRAEDTAVYYCGGSGYALHDDYYGLDVWGQGTLVTVSSGGGGSGGGGSGGGGSQSALTQPASVSGSPGQSITISCTGTSSDVGGYNYVSWYQQHPGKAPKLMIYDVSNRPSGVSNRFSGSKSGNTASLTISGLQAEDEADYYCSSYTSSSTLYVFGSGTKVTVLTTTPAPRPPTPAPTIASQPLSLRPEACRPAAGGAVHTRGLDFACDIYIWAPLAGTCGVLLLSLVITLYCKRGRKKLLYIFKQPFMRPVQTTQEEDGCSCRFPEEEEGGCELRVKFSRSADAPAYQQGQNQLYNELNLGRREEYDVLDKRRGRDPEMGGKPRRKNPQEGLYNELQKDKMAEAYSEIGMKGERRRGKGHDGLYQGLSTATKDTYDALHMQALPPR | 2100 MFI | 24400 MFI | – | – | – |
| B61-10 BCMA CAR (other, CAR on transduced JNL cells or primary human T cells) QVQLVESGGGVVQPGRSLRLSCAASGFTFSSYGMHWVRQAPGKGLEWVAVISYKGSNKYYADSVKGRFTISRDNSKNTLYLQMNSLRAEDTAVYYCGGSGYALHDDYYGLDVWGQGTLVTVSSGGGGSGGGGSGGGGSGGGGSQSALTQPASVSGSPGQSITISCTGTSSDVGGYNYVSWYQQHPGKAPKLMIYEVSNRLRGVSNRFSGSKSGNTASLTISGLQAEDEADYYCSSYTSSSTLYVFGSGTKVTVLTTTPAPRPPTPAPTIASQPLSLRPEACRPAAGGAVHTRGLDFACDIYIWAPLAGTCGVLLLSLVITLYCKRGRKKLLYIFKQPFMRPVQTTQEEDGCSCRFPEEEEGGCELRVKFSRSADAPAYQQGQNQLYNELNLGRREEYDVLDKRRGRDPEMGGKPRRKNPQEGLYNELQKDKMAEAYSEIGMKGERRRGKGHDGLYQGLSTATKDTYDALHMQALPPR | 3290 MFI | 27300 MFI | – | – | – |
| B61-02 BCMA CAR (other, CAR on transduced JNL cells or primary human T cells) QVQLVESGGGVVQPGRSLRLSCAASGFTFSSYGMHWVRQAPGKGLEWVAVISYKGSNKYYADSVKGRFTISRDNSKNTLYLQMNSLRAEDTAVYYCGGSGYALHDDYYGLDVWGQGTLVTVSSGGGGSGGGGSGGGGSGGGGSQSALTQPASVSGSPGQSITISCTGTSSDVGGYNYVSWYQQHPGKAPKLMIYEVSNRLRGVSNRFSGSKSGNTASLTISGLQAEDEADYYCSSYTSSSALYVFGSGTKVTVLTTTPAPRPPTPAPTIASQPLSLRPEACRPAAGGAVHTRGLDFACDIYIWAPLAGTCGVLLLSLVITLYCKRGRKKLLYIFKQPFMRPVQTTQEEDGCSCRFPEEEEGGCELRVKFSRSADAPAYQQGQNQLYNELNLGRREEYDVLDKRRGRDPEMGGKPRRKNPQEGLYNELQKDKMAEAYSEIGMKGERRRGKGHDGLYQGLSTATKDTYDALHMQALPPR | 3470 MFI | 29100 MFI | – | – | – |
| B1 | – | – | binds | binds | – |
| duCD19.1 anti-CD19 CAR (other, CAR on transduced primary human T cells; also called CTL119; Mono-duCD19.1) EIVMTQSPATLSLSPGERATLSCRASQDISKYLNWYQQKPGQAPRLLIYHTSRLHSGIPARFSGSGSGTDYTLTISSLQPEDFAVYFCQQGNTLPYTFGQGTKLEIKGGGGSGGGGSGGGGSQVQLQESGPGLVKPSETLSLTCTVSGVSLPDYGVSWIRQPPGKGLEWIGVIWGSETTYYQSSLKSRVTISKDNSKNQVSLKLSSVTAADTAVYYCAKHYYYGGSYAMDYWGQGTLVTVSSTTTPAPRPPTPAPTIASQPLSLRPEACRPAAGGAVHTRGLDFACDIYIWAPLAGTCGVLLLSLVITLYCKRGRKKLLYIFKQPFMRPVQTTQEEDGCSCRFPEEEEGGCELRVKFSRSADAPAYQQGQNQLYNELNLGRREEYDVLDKRRGRDPEMGGKPRRKNPQEGLYNELQKDKMAEAYSEIGMKGERRRGKGHDGLYQGLSTATKDTYDALHMQALPPR | – | – | – | – | no binding |
| Hy03 BCMA CAR (other, CAR on transduced JNL cells or primary human T cells) EVQLVESGGGLVQPGGSLRLSCAASGFTFSGFWMSWVRQAPGKGLEWVANIKQDGSEKYYVDSVRGRFTISRDNAKNSLYLQMNSLRAEDTAVYYCARALDYYGMDVWGQGTTVTVSSGGGGSGGGGSGGGGSGGGGSDIVMTQTPLSLPVTPGEPASISCRSSQSLLDSDDGNTYLDWYLQKPGQSPRLLIYTLSYRASGVPDRFSGSGSGTDFTLKISRVEAEDVGLYYCTQRLEFPSITFGQGTRLEIKTTTPAPRPPTPAPTIASQPLSLRPEACRPAAGGAVHTRGLDFACDIYIWAPLAGTCGVLLLSLVITLYCKRGRKKLLYIFKQPFMRPVQTTQEEDGCSCRFPEEEEGGCELRVKFSRSADAPAYQQGQNQLYNELNLGRREEYDVLDKRRGRDPEMGGKPRRKNPQEGLYNELQKDKMAEAYSEIGMKGERRRGKGHDGLYQGLSTATKDTYDALHMQALPPR | 929 MFI | 9460 MFI | – | – | – |
| Hy52 BCMA CAR (other, CAR on transduced JNL cells or primary human T cells) EVQLVESGGGLVKPGGSLRLSCAASGFTFSSFRMNWVRQAPGKGLEWVSSISSSSSYIYYADSVKGRFTISRDNAKNSLYLQMNSLRAEDTAVYYCARWLSYYGMDVWGQGTTVTVSSGGGGSGGGGSGGGGSGGGGSDIVMTQTPLSLPVTPGEPASISCRSSQSLLDSDDGNTYLDWYLQKPGQSPQLLIYTLSFRASGVPDRFSGSGSGTDFTLKIRRVEAEDVGVYYCMQRIGFPITFGQGTRLEIKTTTPAPRPPTPAPTIASQPLSLRPEACRPAAGGAVHTRGLDFACDIYIWAPLAGTCGVLLLSLVITLYCKRGRKKLLYIFKQPFMRPVQTTQEEDGCSCRFPEEEEGGCELRVKFSRSADAPAYQQGQNQLYNELNLGRREEYDVLDKRRGRDPEMGGKPRRKNPQEGLYNELQKDKMAEAYSEIGMKGERRRGKGHDGLYQGLSTATKDTYDALHMQALPPR | 2860 MFI | 33700 MFI | – | – | – |
